This note sets out measurements from the supplement of paper PMC9732359.

± gives the uncertainty stated by the source.

The nature of this data set: protein stability index of a GFP-peptide fusion (yeast GPS) (PSI 1-4); higher = more stable; sorted into four equal gates, so the index is relative within each strain. In outline: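 Plasmids isolated from each sorting gate were PCR-amplified and Illumina-sequenced, and barcodes assigned the reads to strains. The gates, four of equal size, were set by GFP/Cherry fluorescence ratio on mid-log cultures in leucine-free medium. These cultures were yeast carrying a pooled library of tiled 17-residue yeast protein peptides fused downstream of GFP on a plasmid that also expresses Cherry. The protein stability index is the sum of every gate's read frequency times its gate number.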

As to KAGKVAVVVRGRYAGKK [RPL27A], the protein stability index (doa10∆) was 2.19 ± 0.083, the protein stability index (pdr5∆) is 2.17 ± 0.053, the protein stability index (san1∆) came out at 2.19 ± 0.097 and the protein stability index (ubr1∆) was 1.78 ± 0.086.
For EDNNDAVNSIMALKFVS [ECM29] the same measures were 3.15 ± 0.1, 3.3 ± 0.077, 3.03 ± 0.079 and 3.32 ± 0.07.
For HLLVQLQKNDVYAFKAK [REC8], in that order: 3.15 ± 0.075, 2.99 ± 0.064, 2.73 ± 0.059 and 3.15 ± 0.074.
For NLAPKLRNVFLGKCSRI [GRR1], in that order: 2.7 ± 0.048, 2.43 ± 0.049, 2.58 ± 0.041 and 2.29 ± 0.049.
Take SAVVGPNGSGKSNVIDS [SMC4]: the protein stability index runs as follows: (doa10∆) 3.13 ± 0.049; (pdr5∆) 2.87 ± 0.043; (san1∆) 3.06 ± 0.06; (ubr1∆) 2.84 ± 0.033.
Turning to IIDHIPGHSLLLSIKLP [SNF5], the protein stability index worked out at 1.96 ± 0.066 (doa10∆), 1.61 ± 0.045 (pdr5∆), 1.53 ± 0.11 (san1∆) and 2.23 ± 0.04 (ubr1∆).
For TVTNSKFRSSILRKSFD [RPN2] the same measures were 2.88 ± 0.1, 3.07 ± 0.091, 2.66 ± 0.094 and 3.31 ± 0.091.
Regarding KVSDPYVPTRNTFNYDV [RPN4], the protein stability index by setting is: (doa10∆) 2.25 ± 0.14; (pdr5∆) 2.39 ± 0.17; (san1∆) 1.8 ± 0.28; (ubr1∆) 2.08 ± 0.085.
DRELNEVINQMERLDGD [SMC3]: the protein stability index is 3.13 ± 0.086 (doa10∆), 3.29 ± 0.083 (pdr5∆), 3.2 ± 0.08 (san1∆) and 3.1 ± 0.045 (ubr1∆).
For ARENAPSIIFIDEVDSI [RPT3] the same measures were 2.75 ± 0.14, 2.46 ± 0.11, 2.74 ± 0.06 and 2.41 ± 0.066.
For DVKLLHSQFMKDLKDDS [YJL039C/NUP192] the same measures were 2.72 ± 0.075, 2.85 ± 0.091, 2.98 ± 0.077 and 2.72 ± 0.055.
For NPASATDNMSGRGLWNP [YJL039C/NUP192] the same measures were 2.71 ± 0.079, 3.1 ± 0.082, 2.8 ± 0.076 and 3.16 ± 0.075.
As to KSRIVKVVGPRGTLTKN [RPL9A], the protein stability index by setting is: (doa10∆) 2.66 ± 0.074; (pdr5∆) 2.92 ± 0.058; (san1∆) 2.65 ± 0.052; (ubr1∆) 2.71 ± 0.033.
In the case of HSGELMRQQSKELQQLQ [SMC1], the protein stability index stood at 2.89 ± 0.15 (doa10∆), 2.98 ± 0.13 (pdr5∆), 2.9 ± 0.11 (san1∆) and 2.7 ± 0.27 (ubr1∆).
Consider VDENGDPIWQHQSLGPD [RET1], for which the protein stability index (doa10∆) was found to be 3.25 ± 0.056, the protein stability index (pdr5∆) came out at 3.21 ± 0.081, the protein stability index (san1∆) amounted to 3.33 ± 0.042 and the protein stability index (ubr1∆) is 3.27 ± 0.084.
For LYQIWIVMVWLKENTYV [YDL116W/NUP84], the protein stability index by setting is: (doa10∆) 1.85 ± 0.061; (pdr5∆) 1.77 ± 0.062; (san1∆) 2.11 ± 0.097; (ubr1∆) 2.14 ± 0.046.
In turn, KQYLSASFSLKNGDKPH [RPL6A] registered a protein stability index (doa10∆) of 2.34 ± 0.057, a protein stability index (pdr5∆) of 1.93 ± 0.045, a protein stability index (san1∆) of 2.43 ± 0.058 and a protein stability index (ubr1∆) of 2.96 ± 0.029.
For MSLINDAMVTRTPVIIS [SMD2], the protein stability index (doa10∆) came to 1.26 ± 0.07, the protein stability index (pdr5∆) turned out to be 1.7 ± 0.066, the protein stability index (san1∆) was 1.47 ± 0.12 and the protein stability index (ubr1∆) was determined as 1.52 ± 0.085.
For YVRKHDPLNSNIFSEAV [PRP28] the same measures were 2.9 ± 0.11, 2.76 ± 0.089, 2.9 ± 0.055 and 3.1 ± 0.12.
SSISVMGENEKPDVTYA [RPT3] displayed a protein stability index (doa10∆) of 2.92 ± 0.2, a protein stability index (pdr5∆) of 3.25 ± 0.1, a protein stability index (san1∆) of 3.12 ± 0.11 and a protein stability index (ubr1∆) of 3.27 ± 0.083.
In the case of CRLFFTELASKDNAIYN [YCS4], the protein stability index is, setting by setting: (doa10∆) 1.3 ± 0.077; (pdr5∆) 1.51 ± 0.055; (san1∆) 1.1 ± 0.16; (ubr1∆) 1.32 ± 0.047.
For DAGKLVYVTGGRNLGRI [RPS4A], in that order: 2.76 ± 0.1, 1.99 ± 0.12, 3.08 ± 0.17 and 1.89 ± 0.28.
For INGWELTKAQKYLEQVL [RPL17A], in that order: 3.34 ± 0.06, 3.44 ± 0.053, 3.4 ± 0.036 and 3.36 ± 0.046.
As to ISTLQVKLYGREGSSAR [RPB2], the protein stability index amounted to 2.71 ± 0.17 (doa10∆), 2.77 ± 0.1 (pdr5∆), 2.77 ± 0.18 (san1∆) and 2.8 ± 0.086 (ubr1∆).
For RRFKNGFQTGSAKATSA [RPL37B], in that order: 3.02 ± 0.066, 3.08 ± 0.079, 3.39 ± 0.09 and 3.18 ± 0.06.
For DLFGDSNKSNSTNESNK [SSN2], in that order: 3.2 ± 0.078, 3.3 ± 0.08, 3.07 ± 0.064 and 3.29 ± 0.058.
